From paper doi:10.1101/2025.10.14.682086v1

Assays:
[1] = substrate: CC1=CC(=O)c2ccccc2C1=O; assay: purified protein, by the assay type; settings: 25.0 °C
[2] = substrate: NC(=O)C1=CN([C@@H]2O[C@H](COP(=O)(O)OP(=O)(O)OC[C@H]3O[C@@H](n4cnc5c(N)ncnc54)[C@H](O)[C@@H]3O)[C@@H](O)[C@H]2O)C=CC1; assay: purified protein, by the assay type; settings: 25.0 °C

| Protein | Km [1] | kcat [1] | Km [2] | kcat [2] |
| --- | --- | --- | --- | --- |
| Mc-NDH2 (Methylococcus capsulatus str. Bath) (protein) MQRKRNEQPLPRILIIGGGAGGLELATKLGRTLGKKGKAQVTLIDAHPTHIWKPLLHEVAAGTMDVNDDELDYLAQANACHFRFVLGRMSGLDRVAKQVKLAPMTNAAGEEVIPACSYPYDILVIAVGSVCNDFGVPGVAQNCIFLDTTEEAQQFHRRLLEAYMRAHAMGGAKQPGQLDVAIVGGGATGIELSAQLHQATRLLAAYGLDNVKPSDIKIHLIEAAPRLLPELPPRLSESTVKQLLALDVQLHLGERVVEARPDGVLTHTGKFIPATLKVWAAGVKAPDFLAQTDLETNRLNQVVVRQTLQTTRDDHIFAIGDCSACPWPERNTTVPPRAQSAHQQASTAYENILRLLAGKAPVDYRYRDYGSLVSLGKYSTVGNLMGNLLGSVMIEGVIARLVYLSLYKMHQYALFGPLRVGLIMIAHFFSQKLRPKIKLH | 12.9 ± 5.4 µM | 3.9 ± 0.4 s⁻¹ | 9.5 ± 5.3 µM | 9.08 ± 1.1 s⁻¹ |
| Ec-NDH2 (Escherichia coli K-12) (protein) TTPLKKIVIVGGGAGGLEMATQLGHKLGRKKKAKITLVDRNHSHLWKPLLHEVATGSLDEGVDALSYLAHARNHGFQFQLGSVIDIDREAKTITIAELRDEKGELLVPERKIAYDTLVMALGSTSNDFNTPGVKENCIFLDNPHQARRFHQEMLNLFLKYSANLGANGKVNIAIVGGGATGVELSAELHNAVKQLHSYGYKGLTNEALNVTLVEAGERILPALPPRISAAAHNELTKLGVRVLTQTMVTSADEGGLHTKDGEYIEADLMVWAAGIKAPDFLKDIGGLETNRINQLVVEPTLQTTRDPDIYAIGDCASCPRPEGGFVPPRAQAAHQMATCAMNNILAQMNGKPLKNYQYKDHGSLVSLSNFSTVGSLMGNLTRGSMMIEGRIARFVYISLYRMHQIALHGYFKTGLMMLVGSINRVIRPRLKLH | 15.6 ± 8.5 µM | 107 ± 13.1 s⁻¹ | 1.7 ± 1.09 µM | 43.6 ± 4 s⁻¹ |
